Source: patent publication US20260015399A1 (Boehringer Ingelheim, published 2026)
*1 amine or outer side, *2 acyl side, *3 side chain or, on linkers, in order; H or OH if unused. Side-chain parts run from the residue outwards. The star is where a group is joined. C18 diacid = O=C(O)CCCCCCCCCCCCCCCCC(=O)*; γGlu = O=C(O)[C@H](CCC(=O)[*:2])N[*:1]; Isovaleryl = CC(C)CC(=O)*; Ahx = NCCCCCC(=O)O

T1: human NPY2 receptor (human, UniProt P49146 1-381)
T1 construct: whole, on cells; also called hNPY2-R; hNPY2R
T1 sequence (looked up): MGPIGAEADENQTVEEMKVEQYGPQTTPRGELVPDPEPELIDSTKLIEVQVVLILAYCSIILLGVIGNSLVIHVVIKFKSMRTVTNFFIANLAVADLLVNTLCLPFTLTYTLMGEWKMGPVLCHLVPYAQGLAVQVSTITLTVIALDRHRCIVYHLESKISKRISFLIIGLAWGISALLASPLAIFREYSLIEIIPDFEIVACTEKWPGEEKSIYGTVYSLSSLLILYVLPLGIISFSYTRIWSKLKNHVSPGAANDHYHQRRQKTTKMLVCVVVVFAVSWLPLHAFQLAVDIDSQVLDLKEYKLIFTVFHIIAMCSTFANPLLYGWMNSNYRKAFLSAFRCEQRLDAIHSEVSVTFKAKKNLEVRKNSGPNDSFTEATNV


Biological target: T1, human NPY2 receptor
Assay: RLB: displacement of 125I-PYY(1-36) from hNPY2R membranes

Binder | Ki [nM]
Isovaleryl-APEK([Ahx-γGlu-C18 diacid])PEEDATPEEIQRYYVSLRHYQNWLTRQRY-NH2 (SMILES CC[C@H](C)[C@H](NC(=O)[C@H](CCC(=O)O)NC(=O)[C@H](CCC(=O)O)NC(=O)[C@@H]1CCCN1C(=O)[C@@H](NC(=O)[C@H](C)NC(=O)[C@H](CC(=O)O)NC(=O)[C@H](CCC(=O)O)NC(=O)[C@H](CCC(=O)O)NC(=O)[C@@H]1CCCN1C(=O)[C@H](CCCCNC(=O)CCCCCNC(=O)CC[C@H](NC(=O)CCCCCCCCCCCCCCCCC(=O)O)C(=O)O)NC(=O)[C@H](CCC(=O)O)NC(=O)[C@@H]1CCCN1C(=O)[C@H](C)NC(=O)CC(C)C)[C@@H](C)O)C(=O)N[C@@H](CCC(N)=O)C(=O)N[C@@H](CCCNC(=N)N)C(=O)N[C@@H](Cc1ccc(O)cc1)C(=O)N[C@@H](Cc1ccc(O)cc1)C(=O)N[C@H](C(=O)N[C@@H](CO)C(=O)N[C@@H](CC(C)C)C(=O)N[C@@H](CCCNC(=N)N)C(=O)N[C@@H](Cc1c[nH]cn1)C(=O)N[C@@H](Cc1ccc(O)cc1)C(=O)N[C@@H](CCC(N)=O)C(=O)N[C@@H](CC(N)=O)C(=O)N[C@@H](Cc1c[nH]c2ccccc12)C(=O)N[C@@H](CC(C)C)C(=O)N[C@H](C(=O)N[C@@H](CCCNC(=N)N)C(=O)N[C@@H](CCC(N)=O)C(=O)N[C@@H](CCCNC(=N)N)C(=O)N[C@@H](Cc1ccc(O)cc1)C(N)=O)[C@@H](C)O)C(C)C) [Compound 113] | 3.53
Isovaleryl-APEK([Ahx-γGlu-C18 diacid])PEEDAAPEELQKYYVSLRHYYNWLTRQRY-NH2 (SMILES CC(C)CC(=O)N[C@@H](C)C(=O)N1CCC[C@H]1C(=O)N[C@@H](CCC(=O)O)C(=O)N[C@@H](CCCCNC(=O)CCCCCNC(=O)CC[C@H](NC(=O)CCCCCCCCCCCCCCCCC(=O)O)C(=O)O)C(=O)N1CCC[C@H]1C(=O)N[C@@H](CCC(=O)O)C(=O)N[C@@H](CCC(=O)O)C(=O)N[C@@H](CC(=O)O)C(=O)N[C@@H](C)C(=O)N[C@@H](C)C(=O)N1CCC[C@H]1C(=O)N[C@@H](CCC(=O)O)C(=O)N[C@@H](CCC(=O)O)C(=O)N[C@@H](CC(C)C)C(=O)N[C@@H](CCC(N)=O)C(=O)N[C@@H](CCCCN)C(=O)N[C@@H](Cc1ccc(O)cc1)C(=O)N[C@@H](Cc1ccc(O)cc1)C(=O)N[C@H](C(=O)N[C@@H](CO)C(=O)N[C@@H](CC(C)C)C(=O)N[C@@H](CCCNC(=N)N)C(=O)N[C@@H](Cc1c[nH]cn1)C(=O)N[C@@H](Cc1ccc(O)cc1)C(=O)N[C@@H](Cc1ccc(O)cc1)C(=O)N[C@@H](CC(N)=O)C(=O)N[C@@H](Cc1c[nH]c2ccccc12)C(=O)N[C@@H](CC(C)C)C(=O)N[C@H](C(=O)N[C@@H](CCCNC(=N)N)C(=O)N[C@@H](CCC(N)=O)C(=O)N[C@@H](CCCNC(=N)N)C(=O)N[C@@H](Cc1ccc(O)cc1)C(N)=O)[C@@H](C)O)C(C)C) [Compound 123] | 3.65
Isovaleryl-APEK([Ahx-γGlu-C18 diacid])PEEDATPEESQRYYVSLRHYYNWLTRQRY-NH2 (SMILES CC(C)CC(=O)N[C@@H](C)C(=O)N1CCC[C@H]1C(=O)N[C@@H](CCC(=O)O)C(=O)N[C@@H](CCCCNC(=O)CCCCCNC(=O)CC[C@H](NC(=O)CCCCCCCCCCCCCCCCC(=O)O)C(=O)O)C(=O)N1CCC[C@H]1C(=O)N[C@@H](CCC(=O)O)C(=O)N[C@@H](CCC(=O)O)C(=O)N[C@@H](CC(=O)O)C(=O)N[C@@H](C)C(=O)N[C@H](C(=O)N1CCC[C@H]1C(=O)N[C@@H](CCC(=O)O)C(=O)N[C@@H](CCC(=O)O)C(=O)N[C@@H](CO)C(=O)N[C@@H](CCC(N)=O)C(=O)N[C@@H](CCCNC(=N)N)C(=O)N[C@@H](Cc1ccc(O)cc1)C(=O)N[C@@H](Cc1ccc(O)cc1)C(=O)N[C@H](C(=O)N[C@@H](CO)C(=O)N[C@@H](CC(C)C)C(=O)N[C@@H](CCCNC(=N)N)C(=O)N[C@@H](Cc1c[nH]cn1)C(=O)N[C@@H](Cc1ccc(O)cc1)C(=O)N[C@@H](Cc1ccc(O)cc1)C(=O)N[C@@H](CC(N)=O)C(=O)N[C@@H](Cc1c[nH]c2ccccc12)C(=O)N[C@@H](CC(C)C)C(=O)N[C@H](C(=O)N[C@@H](CCCNC(=N)N)C(=O)N[C@@H](CCC(N)=O)C(=O)N[C@@H](CCCNC(=N)N)C(=O)N[C@@H](Cc1ccc(O)cc1)C(N)=O)[C@@H](C)O)C(C)C)[C@@H](C)O) [Compound 119] | 5.73

Binders with a lower Ki, results first:

Ki [nM] | Binder
1.49 | Isovaleryl-APAK([Ahx-γGlu-C18 diacid])PEEAATPEEIQRYYVALRHYYNWLTRQRY-NH2 (SMILES CC[C@H](C)[C@H](NC(=O)[C@H](CCC(=O)O)NC(=O)[C@H](CCC(=O)O)NC(=O)[C@@H]1CCCN1C(=O)[C@@H](NC(=O)[C@H](C)NC(=O)[C@H](C)NC(=O)[C@H](CCC(=O)O)NC(=O)[C@H](CCC(=O)O)NC(=O)[C@@H]1CCCN1C(=O)[C@H](CCCCNC(=O)CCCCCNC(=O)CC[C@H](NC(=O)CCCCCCCCCCCCCCCCC(=O)O)C(=O)O)NC(=O)[C@H](C)NC(=O)[C@@H]1CCCN1C(=O)[C@H](C)NC(=O)CC(C)C)[C@@H](C)O)C(=O)N[C@@H](CCC(N)=O)C(=O)N[C@@H](CCCNC(=N)N)C(=O)N[C@@H](Cc1ccc(O)cc1)C(=O)N[C@@H](Cc1ccc(O)cc1)C(=O)N[C@H](C(=O)N[C@@H](C)C(=O)N[C@@H](CC(C)C)C(=O)N[C@@H](CCCNC(=N)N)C(=O)N[C@@H](Cc1c[nH]cn1)C(=O)N[C@@H](Cc1ccc(O)cc1)C(=O)N[C@@H](Cc1ccc(O)cc1)C(=O)N[C@@H](CC(N)=O)C(=O)N[C@@H](Cc1c[nH]c2ccccc12)C(=O)N[C@@H](CC(C)C)C(=O)N[C@H](C(=O)N[C@@H](CCCNC(=N)N)C(=O)N[C@@H](CCC(N)=O)C(=O)N[C@@H](CCCNC(=N)N)C(=O)N[C@@H](Cc1ccc(O)cc1)C(N)=O)[C@@H](C)O)C(C)C) [Compound 120]
1.45 | Isovaleryl-APEK([Ahx-γGlu-C18 diacid])PEADASPEELQRYYVQLRHYYNWLTRQRY-NH2 (SMILES CC(C)CC(=O)N[C@@H](C)C(=O)N1CCC[C@H]1C(=O)N[C@@H](CCC(=O)O)C(=O)N[C@@H](CCCCNC(=O)CCCCCNC(=O)CC[C@H](NC(=O)CCCCCCCCCCCCCCCCC(=O)O)C(=O)O)C(=O)N1CCC[C@H]1C(=O)N[C@@H](CCC(=O)O)C(=O)N[C@@H](C)C(=O)N[C@@H](CC(=O)O)C(=O)N[C@@H](C)C(=O)N[C@@H](CO)C(=O)N1CCC[C@H]1C(=O)N[C@@H](CCC(=O)O)C(=O)N[C@@H](CCC(=O)O)C(=O)N[C@@H](CC(C)C)C(=O)N[C@@H](CCC(N)=O)C(=O)N[C@@H](CCCNC(=N)N)C(=O)N[C@@H](Cc1ccc(O)cc1)C(=O)N[C@@H](Cc1ccc(O)cc1)C(=O)N[C@H](C(=O)N[C@@H](CCC(N)=O)C(=O)N[C@@H](CC(C)C)C(=O)N[C@@H](CCCNC(=N)N)C(=O)N[C@@H](Cc1c[nH]cn1)C(=O)N[C@@H](Cc1ccc(O)cc1)C(=O)N[C@@H](Cc1ccc(O)cc1)C(=O)N[C@@H](CC(N)=O)C(=O)N[C@@H](Cc1c[nH]c2ccccc12)C(=O)N[C@@H](CC(C)C)C(=O)N[C@H](C(=O)N[C@@H](CCCNC(=N)N)C(=O)N[C@@H](CCC(N)=O)C(=O)N[C@@H](CCCNC(=N)N)C(=O)N[C@@H](Cc1ccc(O)cc1)C(N)=O)[C@@H](C)O)C(C)C) [Compound 121]
3.07 | Isovaleryl-APEK([Ahx-γGlu-C18 diacid])PEAAAEPEEIQRYYVSLRHYYNWLTRQRY-NH2 (SMILES CC[C@H](C)[C@H](NC(=O)[C@H](CCC(=O)O)NC(=O)[C@H](CCC(=O)O)NC(=O)[C@@H]1CCCN1C(=O)[C@H](CCC(=O)O)NC(=O)[C@H](C)NC(=O)[C@H](C)NC(=O)[C@H](C)NC(=O)[C@H](CCC(=O)O)NC(=O)[C@@H]1CCCN1C(=O)[C@H](CCCCNC(=O)CCCCCNC(=O)CC[C@H](NC(=O)CCCCCCCCCCCCCCCCC(=O)O)C(=O)O)NC(=O)[C@H](CCC(=O)O)NC(=O)[C@@H]1CCCN1C(=O)[C@H](C)NC(=O)CC(C)C)C(=O)N[C@@H](CCC(N)=O)C(=O)N[C@@H](CCCNC(=N)N)C(=O)N[C@@H](Cc1ccc(O)cc1)C(=O)N[C@@H](Cc1ccc(O)cc1)C(=O)N[C@H](C(=O)N[C@@H](CO)C(=O)N[C@@H](CC(C)C)C(=O)N[C@@H](CCCNC(=N)N)C(=O)N[C@@H](Cc1c[nH]cn1)C(=O)N[C@@H](Cc1ccc(O)cc1)C(=O)N[C@@H](Cc1ccc(O)cc1)C(=O)N[C@@H](CC(N)=O)C(=O)N[C@@H](Cc1c[nH]c2ccccc12)C(=O)N[C@@H](CC(C)C)C(=O)N[C@H](C(=O)N[C@@H](CCCNC(=N)N)C(=O)N[C@@H](CCC(N)=O)C(=O)N[C@@H](CCCNC(=N)N)C(=O)N[C@@H](Cc1ccc(O)cc1)C(N)=O)[C@@H](C)O)C(C)C) [Compound 124]
